In paper PMC9746966, “Structural basis for matriglycan synthesis by the LARGE1 dual glycosyltransferase” (PLOS ONE, 2022):

B1: LARGE1^ecto (soluble secreted ectodomain of human LARGE1 with its coiled-coil domain, residues 29-756) (domain or fragment, UniProt O95461 29-756, looked up)
chain: LFSGSFEDGKPVSLSPLESQAHSPRYTASSQRERESLEVRMREVEEENRALRRQLSLAQGRAPSHRRGNHSKTYSMEEGTGDSENLRAGIVAGNSSECGQQPVVEKCETIHVAIVCAGYNASRDVVTLVKSVLFHRRNPLHFHLIADSIAEQILATLFQTWMVPAVRVDFYNADELKSEVSWIPNKHYSGIYGLMKLVLTKTLPANLERVIVLDTDITFATDIAELWAVFHKFKGQQVLGLVENQSDWYLGNLWKNHRPWPALGRGYNTGVILLLLDKLRKMKWEQMWRLTAERELMGMLSTSLADQDIFNAVIKQNPFLVYQLPCFWNVQLSDHTRSEQCYRDVSDLKVIHWNSPKKLRVKNKHVEFFRNLYLTFLEYDGNLLRRELFGCPSEADVNSENLQKQLSELDEDDLCYEFRRERFTVHRTHLYFLHYEYEPAADSTDVTLVAQLSMDRLQMLEAICKHWEGPISLALYLSDAEAQQFLRYAQGSEVLMSRHNVGYHIVYKEGQFYPVNLLRNVAMKHISTPYMFLSDIDFLPMYGLYEYLRKSVIQLDLANTKKAMIVPAFETLRYRLSFPKSKAELLSMLDMGTLFTFRYHVWTKGHAPTNFAKWRTATTPYRVEWEADFEPYVVVRRDCPEYDRRFVGFGWNKVAHIMELDVQEYEFIVLPNAYMIHMPHAPSFDITKFRSNKQYRICLKTLKEEFQQDMSRRYGFAALKYLTAENNS
notes: Cloned into a modified pHLsec plasmid (BglII/NotI); also called Like-acetylglucosaminyltransferase 1; LARGE1-His WT
B2: LARGE1^ΔCC (soluble secreted ectodomain of human LARGE1 without its coiled-coil domain, residues 92-756) (domain or fragment, UniProt O95461 92-756, looked up)
chain: SHRRGNHSKTYSMEEGTGDSENLRAGIVAGNSSECGQQPVVEKCETIHVAIVCAGYNASRDVVTLVKSVLFHRRNPLHFHLIADSIAEQILATLFQTWMVPAVRVDFYNADELKSEVSWIPNKHYSGIYGLMKLVLTKTLPANLERVIVLDTDITFATDIAELWAVFHKFKGQQVLGLVENQSDWYLGNLWKNHRPWPALGRGYNTGVILLLLDKLRKMKWEQMWRLTAERELMGMLSTSLADQDIFNAVIKQNPFLVYQLPCFWNVQLSDHTRSEQCYRDVSDLKVIHWNSPKKLRVKNKHVEFFRNLYLTFLEYDGNLLRRELFGCPSEADVNSENLQKQLSELDEDDLCYEFRRERFTVHRTHLYFLHYEYEPAADSTDVTLVAQLSMDRLQMLEAICKHWEGPISLALYLSDAEAQQFLRYAQGSEVLMSRHNVGYHIVYKEGQFYPVNLLRNVAMKHISTPYMFLSDIDFLPMYGLYEYLRKSVIQLDLANTKKAMIVPAFETLRYRLSFPKSKAELLSMLDMGTLFTFRYHVWTKGHAPTNFAKWRTATTPYRVEWEADFEPYVVVRRDCPEYDRRFVGFGWNKVAHIMELDVQEYEFIVLPNAYMIHMPHAPSFDITKFRSNKQYRICLKTLKEEFQQDMSRRYGFAALKYLTAENNS
notes: residues 134 to 752 are modelled in the crystal structure; Cloned into a modified pHLsec plasmid; also called LARGE1 without CC; LARGE1- CC

Target: the molecule itself
Test: mass photometry; Refeyn One MP; LARGE1 samples diluted in TBS to approximately 30 nM (2.5 ug/ml), room temperature, 60 second recordings; monomer to dimer

| Protein | stoichiometry N |
| --- | --- |
| B1 | 2 |
| B2 | 2 |
